# Test results from patent US11767359B2, “C3-binding agents and methods of use thereof” (NGM Biopharmaceuticals, Inc., priority 2018, dated 2023).
# How the values were obtained:
# Factor Bb = Factor Bb (Homo sapiens, UniProt P00751); assay: Binding profile: binding to Factor Bb; settings: relative to the binding of the negative control mIgG2 antibody
# Excerpt: (§1) The anti-C3 antibodies described herein were characterized for their ability to bind a number of other components of the complement cascade. Antibodies were screened for binding to C3, C3a, C3b, C3c, C3d, iC3b, and Factor Bb. All the anti-C3 antibodies included in Table 13 were able to block complement activation. The data are relative to the binding of the negative control mIgG2 antibody.
# C3c = C3c (Homo sapiens, UniProt P01024); assay: Binding profile: binding to C3c; settings: relative to the binding of the negative control mIgG2 antibody
# Chain of C3c (P01024 23-667 limits assumed): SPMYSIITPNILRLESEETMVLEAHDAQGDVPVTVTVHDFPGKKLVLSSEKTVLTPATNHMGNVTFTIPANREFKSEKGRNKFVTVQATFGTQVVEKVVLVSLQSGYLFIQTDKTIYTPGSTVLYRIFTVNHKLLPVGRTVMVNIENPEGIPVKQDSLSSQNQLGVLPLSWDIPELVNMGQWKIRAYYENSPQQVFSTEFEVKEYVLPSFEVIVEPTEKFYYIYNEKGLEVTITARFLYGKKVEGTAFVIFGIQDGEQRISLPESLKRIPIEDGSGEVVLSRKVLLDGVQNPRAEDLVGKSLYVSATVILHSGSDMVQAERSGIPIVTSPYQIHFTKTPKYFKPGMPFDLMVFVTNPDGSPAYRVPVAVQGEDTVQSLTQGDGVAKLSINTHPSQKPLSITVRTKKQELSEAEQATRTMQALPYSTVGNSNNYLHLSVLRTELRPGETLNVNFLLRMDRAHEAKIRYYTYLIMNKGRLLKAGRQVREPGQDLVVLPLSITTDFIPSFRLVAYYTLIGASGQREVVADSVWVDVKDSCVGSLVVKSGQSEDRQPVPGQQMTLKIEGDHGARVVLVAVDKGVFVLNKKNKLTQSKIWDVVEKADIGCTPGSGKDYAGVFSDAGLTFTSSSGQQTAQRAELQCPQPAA
# Chain of C3c (P01024 749-954 limits assumed): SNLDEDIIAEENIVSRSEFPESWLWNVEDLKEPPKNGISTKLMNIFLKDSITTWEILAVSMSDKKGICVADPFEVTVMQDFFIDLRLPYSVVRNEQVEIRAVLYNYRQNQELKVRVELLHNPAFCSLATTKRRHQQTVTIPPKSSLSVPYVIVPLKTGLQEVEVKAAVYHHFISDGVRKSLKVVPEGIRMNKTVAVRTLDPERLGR
# Chain of C3c (P01024 1321-1663 limits assumed): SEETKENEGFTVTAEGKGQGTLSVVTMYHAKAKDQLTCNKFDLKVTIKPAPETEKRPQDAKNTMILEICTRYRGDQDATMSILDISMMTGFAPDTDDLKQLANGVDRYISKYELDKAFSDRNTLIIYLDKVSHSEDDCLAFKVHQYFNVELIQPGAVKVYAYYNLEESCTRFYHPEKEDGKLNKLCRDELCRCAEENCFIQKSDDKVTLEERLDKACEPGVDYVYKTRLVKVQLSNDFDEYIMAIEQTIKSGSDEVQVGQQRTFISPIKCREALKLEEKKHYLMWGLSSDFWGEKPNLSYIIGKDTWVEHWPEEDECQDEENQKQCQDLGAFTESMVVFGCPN
# Excerpt: as §1
# iC3b = iC3b (Homo sapiens, UniProt P01024); assay: Binding profile: binding to iC3b; settings: relative to the binding of the negative control mIgG2 antibody
# Chain of iC3b (P01024 23-667 limits assumed): as the sequence (P01024 23-667 limits assumed) above
# Chain of iC3b (P01024 749-1303 limits assumed): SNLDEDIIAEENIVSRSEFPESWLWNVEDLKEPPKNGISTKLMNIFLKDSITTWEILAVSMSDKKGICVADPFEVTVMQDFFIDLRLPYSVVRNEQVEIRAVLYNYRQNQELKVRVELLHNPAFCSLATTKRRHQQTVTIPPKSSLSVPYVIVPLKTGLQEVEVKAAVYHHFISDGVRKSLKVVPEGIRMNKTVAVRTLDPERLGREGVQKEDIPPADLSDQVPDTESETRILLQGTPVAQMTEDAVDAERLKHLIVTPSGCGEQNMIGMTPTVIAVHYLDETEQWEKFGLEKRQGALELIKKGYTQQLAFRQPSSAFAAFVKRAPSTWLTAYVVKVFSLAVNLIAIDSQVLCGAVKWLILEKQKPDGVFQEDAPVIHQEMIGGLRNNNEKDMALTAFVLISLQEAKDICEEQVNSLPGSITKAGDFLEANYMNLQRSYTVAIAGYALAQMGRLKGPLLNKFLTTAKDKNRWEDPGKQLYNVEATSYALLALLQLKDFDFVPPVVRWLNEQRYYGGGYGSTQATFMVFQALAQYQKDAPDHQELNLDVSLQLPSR
# Chain of iC3b (P01024 1321-1663 limits assumed): as the sequence (P01024 1321-1663 limits assumed) above
# Excerpt: as §1
# C3 [1] = target: T1, C3 (Homo sapiens, UniProt P01024); assay: Binding profile: binding to C3; settings: summary in words of Table 13
# T1 sequence (P01024 23-1663): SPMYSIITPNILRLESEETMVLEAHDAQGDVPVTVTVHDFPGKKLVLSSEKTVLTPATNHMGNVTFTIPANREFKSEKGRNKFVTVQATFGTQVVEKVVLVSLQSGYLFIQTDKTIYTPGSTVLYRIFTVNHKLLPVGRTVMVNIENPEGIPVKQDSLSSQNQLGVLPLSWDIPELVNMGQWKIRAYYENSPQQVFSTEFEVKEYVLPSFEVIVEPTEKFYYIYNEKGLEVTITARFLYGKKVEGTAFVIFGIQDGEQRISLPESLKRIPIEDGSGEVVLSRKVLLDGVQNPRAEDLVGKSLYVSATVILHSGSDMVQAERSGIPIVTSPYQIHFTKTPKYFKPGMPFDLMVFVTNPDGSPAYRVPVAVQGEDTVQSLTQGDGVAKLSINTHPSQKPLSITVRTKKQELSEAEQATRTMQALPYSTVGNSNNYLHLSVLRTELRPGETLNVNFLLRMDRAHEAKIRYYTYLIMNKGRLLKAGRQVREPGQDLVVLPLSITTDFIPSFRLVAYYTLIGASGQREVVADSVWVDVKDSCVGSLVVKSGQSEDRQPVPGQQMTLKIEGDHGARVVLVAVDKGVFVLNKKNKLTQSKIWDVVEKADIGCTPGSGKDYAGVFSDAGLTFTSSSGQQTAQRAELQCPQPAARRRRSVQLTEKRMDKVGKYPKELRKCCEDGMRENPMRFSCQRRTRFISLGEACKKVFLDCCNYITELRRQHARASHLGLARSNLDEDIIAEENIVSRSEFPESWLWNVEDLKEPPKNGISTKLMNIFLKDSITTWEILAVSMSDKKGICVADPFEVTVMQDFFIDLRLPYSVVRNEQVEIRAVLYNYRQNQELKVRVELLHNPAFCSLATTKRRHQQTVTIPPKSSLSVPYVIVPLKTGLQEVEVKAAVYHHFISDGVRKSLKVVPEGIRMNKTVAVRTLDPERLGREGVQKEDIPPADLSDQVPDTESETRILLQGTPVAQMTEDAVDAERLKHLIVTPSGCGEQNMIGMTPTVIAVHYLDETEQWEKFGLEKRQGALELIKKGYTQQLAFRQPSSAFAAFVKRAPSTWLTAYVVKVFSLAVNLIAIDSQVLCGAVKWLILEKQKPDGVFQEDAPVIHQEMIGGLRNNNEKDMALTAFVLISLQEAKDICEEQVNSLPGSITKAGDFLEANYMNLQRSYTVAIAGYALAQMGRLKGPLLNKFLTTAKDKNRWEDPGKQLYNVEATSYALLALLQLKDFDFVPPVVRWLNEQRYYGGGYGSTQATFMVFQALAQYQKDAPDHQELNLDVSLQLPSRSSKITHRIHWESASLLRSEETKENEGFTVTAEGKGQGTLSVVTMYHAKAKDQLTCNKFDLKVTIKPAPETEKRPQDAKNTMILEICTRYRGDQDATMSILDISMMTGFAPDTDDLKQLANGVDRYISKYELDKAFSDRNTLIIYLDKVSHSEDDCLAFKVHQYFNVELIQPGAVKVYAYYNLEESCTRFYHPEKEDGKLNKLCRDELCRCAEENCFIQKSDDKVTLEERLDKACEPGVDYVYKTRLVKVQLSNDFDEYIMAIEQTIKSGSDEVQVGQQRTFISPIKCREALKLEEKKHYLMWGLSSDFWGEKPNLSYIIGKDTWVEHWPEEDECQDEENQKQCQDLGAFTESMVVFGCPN
# Excerpt: as §1
# C3b = C3b (Homo sapiens, UniProt P01024); assay: Binding profile: binding to C3b; settings: relative to the binding of the negative control mIgG2 antibody
# Chain of C3b (P01024 23-667 limits assumed): as the sequence (P01024 23-667 limits assumed) above
# Chain of C3b (P01024 749-1663 limits assumed): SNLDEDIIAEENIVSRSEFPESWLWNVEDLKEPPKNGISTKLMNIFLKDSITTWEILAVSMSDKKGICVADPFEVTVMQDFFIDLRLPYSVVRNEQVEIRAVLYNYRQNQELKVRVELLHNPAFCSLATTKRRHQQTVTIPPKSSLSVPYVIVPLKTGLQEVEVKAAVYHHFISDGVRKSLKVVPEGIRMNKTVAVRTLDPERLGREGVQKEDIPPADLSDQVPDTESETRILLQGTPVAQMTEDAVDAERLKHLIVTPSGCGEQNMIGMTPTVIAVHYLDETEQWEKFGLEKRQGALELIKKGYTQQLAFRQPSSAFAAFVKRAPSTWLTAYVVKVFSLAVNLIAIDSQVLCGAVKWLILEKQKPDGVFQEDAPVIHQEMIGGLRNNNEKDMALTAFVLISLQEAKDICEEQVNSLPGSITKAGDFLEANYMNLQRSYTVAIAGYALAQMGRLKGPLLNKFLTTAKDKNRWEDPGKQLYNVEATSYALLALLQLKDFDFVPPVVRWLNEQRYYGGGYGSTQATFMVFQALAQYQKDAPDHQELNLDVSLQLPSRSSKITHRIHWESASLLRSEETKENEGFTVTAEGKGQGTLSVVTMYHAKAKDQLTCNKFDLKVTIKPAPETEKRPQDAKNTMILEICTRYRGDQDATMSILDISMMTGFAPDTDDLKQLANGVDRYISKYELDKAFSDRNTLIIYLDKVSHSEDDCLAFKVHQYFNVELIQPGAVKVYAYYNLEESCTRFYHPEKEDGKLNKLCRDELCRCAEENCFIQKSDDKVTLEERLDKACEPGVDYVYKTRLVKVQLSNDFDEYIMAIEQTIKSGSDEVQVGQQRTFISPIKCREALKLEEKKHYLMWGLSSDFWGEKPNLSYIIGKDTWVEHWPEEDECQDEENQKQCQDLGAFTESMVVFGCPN
# Excerpt: as §1
# C3 [2] = target: T1, C3; assay: Binding affinity by Biacore, human C3
# Description: The binding affinities of exemplary anti-C3 antibodies to human C3 and cyno C3 were measured using a Biacore system (GE Healthcare LifeSciences). Briefly, anti-Fc antibody (Sigma-Aldrich) was immobilized on all four flow cells of a CM5 chip using amine coupling reagents (GE Healthcare LifeSciences). Antibodies were captured on flow cells 2, 3, and 4 using flow cell 1 as a reference. Concentrations ranging from 0.62-40 nM of human C3 or cyno C3 were injected at a flow rate of 50 μL/min at 37° C. Kinetic data were collected over time and fit using the simultaneous global fit equation to yield affinity constants (KD values) for each antibody.
# More recently, a number of compstatin analogs and derivatives have been generated and studied. […] A Biacore system was used to assess the binding affinities of the different molecules to human C3. […] Evaluation of COMP or COMP-PEG binding to human C3 was carried out as follows. Human C3 was immobilized on flow cell 2 of a CM5 chip using amine-coupling reagents (GE Healthcare LifeSciences) and flow cell 1 (immobilized with a similar amount of human IgG) was used as a reference. […] Similar experiments were set up with COMP-PEG (concentration range of 25-400 nM) for evaluation at 37° C. COMP-PEG binding to human C3 was also evaluated at 25° C. with modifications. […]
# [3] = Elevated pH stress test, deamidation at N55 of heavy chain CDR2; format: physicochemical
# [4] = Solubility of Hz38G10 dsscFv by micro-concentration; format: physicochemical; settings: 10 mM sodium phosphate, 40 mM sodium chloride, 0.03% polysorbate 20, 5% sucrose, pH 6.2
# Description: The purified antibodies were dialyzed into buffer consisting of 10 mM sodium phosphate, 40 mM sodium chloride, 0.03% polysorbate 20, and 5% sucrose, pH 6.2. The solution was micro-concentrated using 10,000 Da NMWCO spin concentrator at 3,000×g at room temperature. Protein concentration was measured on an Agilent Cary 60 UV-VIS Solo VPE spectrophotometer.
# Chain of Factor Bb (P00751 260-764 limits assumed): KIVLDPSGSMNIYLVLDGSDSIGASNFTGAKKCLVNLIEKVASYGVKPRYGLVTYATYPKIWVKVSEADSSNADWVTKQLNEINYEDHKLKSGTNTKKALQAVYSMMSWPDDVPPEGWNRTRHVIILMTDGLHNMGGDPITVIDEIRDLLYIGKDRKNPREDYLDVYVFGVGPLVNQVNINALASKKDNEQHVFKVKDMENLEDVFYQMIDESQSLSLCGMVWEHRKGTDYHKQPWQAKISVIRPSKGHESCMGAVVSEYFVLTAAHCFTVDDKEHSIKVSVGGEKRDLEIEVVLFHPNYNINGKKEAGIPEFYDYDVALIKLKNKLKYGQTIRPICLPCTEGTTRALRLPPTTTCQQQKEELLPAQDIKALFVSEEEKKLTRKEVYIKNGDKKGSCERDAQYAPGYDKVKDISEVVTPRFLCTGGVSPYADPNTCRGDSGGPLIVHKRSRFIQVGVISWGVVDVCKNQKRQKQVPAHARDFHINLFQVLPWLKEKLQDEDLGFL
binding to Factor Bb (Factor Bb),binding to C3c (C3c),binding to iC3b (iC3b),Molecule,further results
0.00,0.28,–,"28C3: mouse anti-C3 monoclonal antibody; VH SEQ ID NO:99, VL SEQ ID NO:100 (antibody, V domains shown) VH: QVQLQQSGPELVKPGASVKISCKASGYAFNSCWMNWVKQRPGKGLEWIGRIYPGDGDTNYNGKFKGKATLTADKSSTTAYMQLSSLTSEDSAVYFCAREGRNYGYEDYWGQGTTLTVSS VL: DIVLTQSPASLAVSLGQRATISCKASQSVDYDGDSYMNWYQQKPGQPPKLLIYAASDLESGIPARFSGSGSGTDFTLNIHPVEEEDAATYYCQQANEDPRTFGGGTKLEIK",–
–,0.13,0.06,"38G10: mouse anti-C3 monoclonal antibody; VH SEQ ID NO:18, VL SEQ ID NO:19 (antibody, V domains shown) VH: EVQLQQSGPELVKPGDSVKMSCKASGYTFTDFYMDWVKQSHGKSLEWIGYIYPHNGGTTYNQNFTGKATLTVDKSSNTAYMELHSLTSEDSAVYYCARRGGFDFDYWGQGTTLTVSS VL: NIVMTQSPKSMSLSVGERVTLRCKASENVDTYVSWYQQKPEQSPKLLIYGASNRYTGVPDRFTGSGSATEFTLTISSVQAEDLVGYHCGQSHSYPLTFGAGTKLELK",C3 binding profile (C3 versus fragments of the complement cascade) (C3 [1]): bound preferentially to C3 with no detectable or very limited binding to any of the fragments of the complement cascade; binding to C3b (C3b): 0.06
0.00,0.43,0.49,"62F2: mouse anti-C3 monoclonal antibody; VH SEQ ID NO:105, VL SEQ ID NO:106 (antibody, V domains shown) VH: DVQLQESGPDLVKPSQSLSLTCTVTGYSITSGYSLHWIRQFPGNKLEWMGYIHYSGSTNYNPSLKSRISITRDTSKNQFFLKLNSVTSEDTATYHCARAWDYLDYWGQGTTLTVSS VL: DIQMTQSPASLSASVGETVTITCRASENIYSQLAWYQQKQGKSPQLLVYDAKTLAEGVPSRFSGSGSDTQFSLKIISLQPEDFGRYYCHHHFGILYTFGGGTKLEMK",–
–,0.45,0.45,"38F5: mouse anti-C3 monoclonal antibody; VH SEQ ID NO:101, VL SEQ ID NO:102 (antibody, V domains shown) VH: EVMLVESGGALVKPGGSLKLSCTASGFTFSNYAMSWVRQTPEKRLEWVAQTISSGGRYTYYPDSVKGRFTISRDNARNTLYLQMSSLRSEDTAMYYCVRRYYGNSYWYFDVWGAGTTVTVSS VL: DIVMTQSPSSLSVSAGEKVTMNCKSSQSLLNSGNQKHYLTWYQQKPGQPPKLLIYGASTRGSGVPDRFTGSGSGTDFTLTISSVQAEDLAVYYCQNDHSYPYTFGGGTKLEIK",–
–,–,–,"Hz38G10(N55D): Hz38G10 variant with N55D mutation in heavy chain CDR2, mimics a fully deamidated molecule (antibody, V domains shown) VH: QVQLVQSGAEVKKPGASVKVSCKASGYTFTDFYMDWVRQAPGQRLEWMGYIYPHDGGTTYNQQFTGRVTITVDKSASTAYMELSSLRSEDTAVYYCARRGGFDFDYWGQGTLVTVSS VL: DIQMTQSPSSLSASVGDRVTITCKASENVDTYVSWYQQKPGKAPKLLIYGASNRYTGVPSRFSGSGSGTDFTFTISSLQPEDIATYHCGQSHSYPLTFGQGTKLEIK",binding to human C3 as compared to Hz38G10 (C3 [2]): reduced binding
–,–,–,"Hz38G10 (G56A): Hz38G10 variant with G56A mutation in heavy chain CDR2; VH SEQ ID NO:21, VL SEQ ID NO:25 (antibody, V domains shown) VH: QVQLVQSGAEVKKPGASVKVSCKASGYTFTDFYMDWVRQAPGQRLEWMGYIYPHNAGTTYNQQFTGRVTITVDKSASTAYMELSSLRSEDTAVYYCARRGGFDFDYWGQGTLVTVSS VL: DIQMTQSPSSLSASVGDRVTITCKASENVDTYVSWYQQKPGKAPKLLIYGASNRYTGVPSRFSGSGSGTDFTFTISSLQPEDIATYHCGQSHSYPLTFGQGTKLEIK","deamidation at the asparagine N55, Day 0 ([3]; pH 8.5, Day 0): 0.66%; deamidation at the asparagine N55, Day 7 ([3]; pH 8.5, Day 7): 1.0%"
0.00,0.55,0.72,"63A3: mouse anti-C3 monoclonal antibody; VH SEQ ID NO:107, VL SEQ ID NO:108 (antibody, V domains shown) VH: DVQLQESGPGLVKPSQSLSLTCSVTGYSITSGYYWNWIRQFPGNKLEWMGYIRYDGSNNYNPSLKNRISITRDTSKNQVFLKLNSVTPEDTATYYCARHYGYDGGAFDFWGQGTTLTVSS VL: DIQMTQSPASLSASVGETVTITCRTSENIYNYLVWYQQKQGKSPQLLVYNAKTLEEGVPSRFSGSGSGTQFSLKVNSLQPEDFGSYYCQHHYGTPFTFGSGTKLEIK",–
–,0.17,0.29,"3D8: mouse anti-C3 monoclonal antibody; VH SEQ ID NO:91, VL SEQ ID NO:92 (antibody, V domains shown) VH: EIQLQQSGAELVKPGASVKISCKASGYSFTGYNMNWVKQSHGKSLEWIGNINPYYGSTNYNQKFKGKATLTVDKSSTTAYMQLDSLTSEDSAVYYCARGYYGGNYPFAYWGQGTLVTVSA VL: DIQMTQSPASLSASVGETVTITCRASENIYSYLAWYQQKQGKSPQLLVYNAKTLAEGVPSRFSGSGSGTQFSLKINSLQPEDFGSYYCQHYYGTPYTFGGGSKVEIK",–
–,0.22,0.25,"3G8: mouse anti-C3 monoclonal antibody; VH SEQ ID NO:93, VL SEQ ID NO:94 (antibody, V domains shown) VH: EIQLQQSGAELVKPGASVKISCMASGYSFTGYNMNWVKQSHGKGLEWIGNINPYYDSTSYNQKFKGKATLTVDKSSSTAYMQLNSLTSEDSAVYYCARENYDFVGFAYWGQGTLVTVSA VL: QIVLSQSPAILSASPGEKVTMTCRASSSVSYMHWFQQKPGSSPKPWIYVTSNLASGVPPRFSGSGSGTSYSLTISRVEAEDAATYYCQQWSTNPLTFGAGTKLELK",–
–,–,–,"Hz38G10 dsscFv: VL-linker-VH disulfide-linked scFv of Hz38G10, SEQ ID NO:113 (protein) scFv: MDIQMTQSPSSLSASVGDRVTITCKASENVDTYVSWYQQKPGKAPKLLIYGASNRYTGVPSRFSGSGSGTDFTFTISSLQPEDIATYHCGQSHSYPLTFGCGTKLEIKGGGGSGGGGSGGGGSQVQLVQSGAEVKKPGASVKVSCKASGYTFTDFYMDWVRQAPGQCLEWMGYIYPHNGGTTYNQQFTGRVTITVDKSASTAYMELSSLRSEDTAVYYCARRGGFDFDYWGQGTLVTVSS",protein concentration reached with no visible aggregation [4]: 229 mg/mL
